{"source": "paper PMC2958364", "about": "(Journal of molecular biology, 2008)", "key": {"[1]": {"molecular_target": "αvβ6 integrin on A375Pβ6 cells (Homo sapiens (A375P alpha-V, human …, UniProt P06756;P18564))", "sequence (P06756 31-1048, stated change not applied, chain 1 of 2)": "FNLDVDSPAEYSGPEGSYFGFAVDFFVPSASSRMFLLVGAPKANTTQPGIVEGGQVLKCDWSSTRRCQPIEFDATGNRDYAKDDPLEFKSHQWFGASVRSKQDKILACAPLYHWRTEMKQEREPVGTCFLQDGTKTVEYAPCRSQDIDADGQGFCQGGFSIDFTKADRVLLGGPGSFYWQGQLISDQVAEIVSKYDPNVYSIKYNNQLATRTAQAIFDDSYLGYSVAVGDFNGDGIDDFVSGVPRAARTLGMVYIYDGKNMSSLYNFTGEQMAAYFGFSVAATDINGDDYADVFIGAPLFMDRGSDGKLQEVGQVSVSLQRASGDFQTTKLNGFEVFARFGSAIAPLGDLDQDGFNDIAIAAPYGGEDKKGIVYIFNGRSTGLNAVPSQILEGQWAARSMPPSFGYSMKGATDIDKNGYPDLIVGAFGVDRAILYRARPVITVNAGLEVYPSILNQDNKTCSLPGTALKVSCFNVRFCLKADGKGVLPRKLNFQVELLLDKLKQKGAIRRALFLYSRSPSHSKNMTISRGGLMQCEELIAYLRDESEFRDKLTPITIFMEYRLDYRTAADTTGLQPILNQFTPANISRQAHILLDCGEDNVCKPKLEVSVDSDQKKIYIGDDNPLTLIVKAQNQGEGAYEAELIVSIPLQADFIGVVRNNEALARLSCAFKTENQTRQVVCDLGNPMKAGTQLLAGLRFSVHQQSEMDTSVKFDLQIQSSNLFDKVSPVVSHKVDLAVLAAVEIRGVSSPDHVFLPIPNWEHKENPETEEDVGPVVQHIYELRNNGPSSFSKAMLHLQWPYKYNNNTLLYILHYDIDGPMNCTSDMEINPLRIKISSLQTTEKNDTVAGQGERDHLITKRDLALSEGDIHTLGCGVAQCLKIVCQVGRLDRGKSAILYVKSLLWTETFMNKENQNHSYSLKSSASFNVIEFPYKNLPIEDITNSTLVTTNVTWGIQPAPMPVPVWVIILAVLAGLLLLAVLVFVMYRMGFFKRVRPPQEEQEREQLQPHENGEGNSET", "sequence (P18564 22-788, chain 2 of 2)": "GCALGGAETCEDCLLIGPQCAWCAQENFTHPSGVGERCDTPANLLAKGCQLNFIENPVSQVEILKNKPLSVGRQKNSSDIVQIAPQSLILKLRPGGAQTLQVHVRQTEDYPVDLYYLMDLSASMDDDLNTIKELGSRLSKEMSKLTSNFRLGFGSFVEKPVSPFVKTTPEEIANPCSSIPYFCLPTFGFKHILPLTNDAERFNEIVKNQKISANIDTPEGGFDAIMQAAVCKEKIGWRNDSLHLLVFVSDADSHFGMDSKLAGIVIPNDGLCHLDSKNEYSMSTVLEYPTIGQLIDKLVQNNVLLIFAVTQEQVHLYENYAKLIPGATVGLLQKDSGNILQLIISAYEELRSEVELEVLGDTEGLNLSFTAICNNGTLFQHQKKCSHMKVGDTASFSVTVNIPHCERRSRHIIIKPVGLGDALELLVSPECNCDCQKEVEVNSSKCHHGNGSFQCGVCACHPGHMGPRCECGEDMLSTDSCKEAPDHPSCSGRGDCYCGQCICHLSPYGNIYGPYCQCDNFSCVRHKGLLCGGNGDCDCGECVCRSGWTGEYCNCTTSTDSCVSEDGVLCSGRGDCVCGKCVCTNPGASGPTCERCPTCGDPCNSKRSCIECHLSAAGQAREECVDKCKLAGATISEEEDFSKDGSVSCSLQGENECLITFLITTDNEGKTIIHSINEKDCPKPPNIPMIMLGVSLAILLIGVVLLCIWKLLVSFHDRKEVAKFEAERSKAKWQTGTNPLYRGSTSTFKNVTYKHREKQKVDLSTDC", "assay": "flow cytometry on cells"}, "[2]": {"molecular_target": "αvβ6 integrin, purified from CHO αvβ6 cells (Homo sapiens (assumed), recombinant …, UniProt P06756;P18564)", "sequence (P06756 31-1048, chain 1 of 2)": "as the sequence (P06756 31-1048, stated change not applied, chain 1 of 2) above", "sequence (P18564 22-788, chain 2 of 2)": "as the sequence (P18564 22-788, chain 2 of 2) above", "assay": "ELISA"}, "[3]": {"molecular_target": "αvβ3 integrin, immobilized (Homo sapiens (assumed), UniProt P06756;P05106)", "sequence (P06756 31-1048, chain 1 of 2)": "as the sequence (P06756 31-1048, stated change not applied, chain 1 of 2) above", "sequence (P05106 27-718, chain 2 of 2)": "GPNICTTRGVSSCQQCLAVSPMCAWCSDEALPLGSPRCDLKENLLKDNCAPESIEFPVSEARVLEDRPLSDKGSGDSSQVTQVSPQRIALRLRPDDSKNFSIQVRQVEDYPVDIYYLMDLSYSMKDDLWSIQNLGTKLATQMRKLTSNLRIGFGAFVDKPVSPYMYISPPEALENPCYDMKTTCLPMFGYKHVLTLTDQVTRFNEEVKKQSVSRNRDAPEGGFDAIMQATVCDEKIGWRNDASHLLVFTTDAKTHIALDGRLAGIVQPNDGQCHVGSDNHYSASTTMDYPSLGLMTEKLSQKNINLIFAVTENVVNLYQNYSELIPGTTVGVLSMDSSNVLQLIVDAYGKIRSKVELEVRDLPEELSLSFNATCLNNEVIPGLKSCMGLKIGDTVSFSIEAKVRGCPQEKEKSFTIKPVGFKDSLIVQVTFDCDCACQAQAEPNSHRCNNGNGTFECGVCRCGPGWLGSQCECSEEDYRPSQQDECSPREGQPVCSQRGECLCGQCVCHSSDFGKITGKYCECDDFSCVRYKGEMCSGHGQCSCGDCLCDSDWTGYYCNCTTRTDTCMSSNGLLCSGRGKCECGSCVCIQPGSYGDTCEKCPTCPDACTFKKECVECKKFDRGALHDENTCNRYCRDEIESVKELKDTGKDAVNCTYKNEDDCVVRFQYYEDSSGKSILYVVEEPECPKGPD", "assay": "ELISA"}}, "data": [{"binder": "MFE-23 (scFv, V domains shown) VH: QVKLQQSGAELVRSGTSVKLSCTASGFNIKDSYMHWLRQGPEQGLEWIGWIDPENGDTEYAPKFQGKATFTTDTSSNTAYLQLSSLTSEDTAVYYCNEGTPTGPYYFDYWGQGTTVTVSS VL: ENVLTQSPAIMSASPGEKVTITCSASSSVSYMHWFQQKPGTSPKLWIYSTSNLASGVPARFSGSGSGTSYSLTISRMEAEDAATYYCQQRSSYPLTFGAGTKLELK", "values": [{"measurement": "binding result", "setting": "[1]", "value": "no binding (tested: 50 μg/ml)"}, {"measurement": "binding result", "setting": "[2]", "value": "no binding (tested: 5 μg/ml)"}, {"measurement": "binding result", "setting": "[3]", "value": "no binding (tested: 5 μg/ml)"}]}]}
